The text below walks through data of patent publication US20050282739A1 (PALATIN TECHNOLOGIES, published 2005).

Square brackets hold non-standard residues; d marks the D form. Ends that are not written are not given here. Nle = CCCC[C@H](N)C(=O)O

Experiment [1] concerns the target T1, melanocortin-1 receptor (MC1-R) of B-16 mouse melanoma cells (mouse, UniProt Q01727 1-315).
T1 construct: whole, on cells; membranes prepared from the cells were used; also called Melanocortin Receptor 1
The experiment in a line: 125I-NDP-α-MSH competition, B-16 membranes. As for the experimental part:
(§1) The competitive inhibition binding assay was conducted using membranes prepared from hMC3-R, hMC4-R, hMC5-R, and B-16 mouse melanoma cells (containing MC1-R) using 0.4 nM ¹²⁵I-NDP-alpha-MSH (New England Nuclear, Boston, Mass., USA) in 50 mM HEPES buffer containing 1 mM MgCl₂, 2 mM CaCl₂, and 5 mM KCl, at pH 7.2. […] Incubation was for 90 minutes at room temperature, after which the assay mixture was filtered and the membranes washed three times with ice cold buffer. The filter was dried and counted in a gamma counter for remaining radioactivity bound to the membranes. 100% specific binding was defined as the difference in radioactivity (cpm) bound to cell membranes in the absence and presence of 1 μM α-MSH. […] Each assay was conducted in triplicate and the actual mean valves are described.
(§2) The first unnumbered peptide in Table 3 is the parent polypeptide, which is a Nle³, D-Phe⁶ substituted γ-MSH analog specific for melanocortin receptors. The methods and assays set forth in Example 1 were followed.

The target of experiment [2] is T2, human melanocortin-4 receptor (hMC4-R) (human, UniProt P32245 1-332).
T2 construct: whole, on cells; membranes prepared from hMC4-R cells were used; also called Melanocortin Receptor 4
Description: 125I-NDP-α-MSH competition, hMC4-R membranes. As for the experimental part: as §1, §2

Experiment [3] has as its target T3, human melanocortin-3 receptor (hMC3-R) (human, UniProt P41968 1-323).
T3 construct: whole, on cells; membranes prepared from hMC3-R cells were used; also called Melanocortin Receptor 3
The experiment in a line: 125I-NDP-α-MSH competition, hMC3-R membranes. As for the experimental part:
as §1, §2

Experiment [4] has as its target T4, human melanocortin-5 receptor (hMC5-R) (human, UniProt P33032 1-325).
T4 construct: whole, on cells; membranes prepared from hMC5-R cells were used; also called Melanocortin Receptor 5
The experiment in a line: 125I-NDP-α-MSH competition, hMC5-R membranes. As for the experimental part:
as §1, §2

T3 sequence (P41968 whole entry): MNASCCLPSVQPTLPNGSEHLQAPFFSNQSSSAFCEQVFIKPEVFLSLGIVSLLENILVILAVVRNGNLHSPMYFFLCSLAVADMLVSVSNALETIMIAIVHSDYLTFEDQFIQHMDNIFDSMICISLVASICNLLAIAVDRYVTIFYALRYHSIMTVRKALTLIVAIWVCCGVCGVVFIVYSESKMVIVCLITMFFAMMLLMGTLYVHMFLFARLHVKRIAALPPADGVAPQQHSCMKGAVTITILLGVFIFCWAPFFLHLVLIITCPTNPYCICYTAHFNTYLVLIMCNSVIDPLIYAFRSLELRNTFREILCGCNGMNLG
T1 sequence (Q01727 whole entry): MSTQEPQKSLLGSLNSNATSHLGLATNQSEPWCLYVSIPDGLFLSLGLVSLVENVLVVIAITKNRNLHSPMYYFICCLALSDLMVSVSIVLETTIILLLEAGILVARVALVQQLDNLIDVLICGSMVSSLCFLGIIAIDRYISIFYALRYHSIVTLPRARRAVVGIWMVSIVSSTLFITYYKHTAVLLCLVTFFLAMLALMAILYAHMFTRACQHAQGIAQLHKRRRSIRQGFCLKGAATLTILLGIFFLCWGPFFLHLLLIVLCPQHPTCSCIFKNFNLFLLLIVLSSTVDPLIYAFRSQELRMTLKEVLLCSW
T2 sequence (P32245 whole entry): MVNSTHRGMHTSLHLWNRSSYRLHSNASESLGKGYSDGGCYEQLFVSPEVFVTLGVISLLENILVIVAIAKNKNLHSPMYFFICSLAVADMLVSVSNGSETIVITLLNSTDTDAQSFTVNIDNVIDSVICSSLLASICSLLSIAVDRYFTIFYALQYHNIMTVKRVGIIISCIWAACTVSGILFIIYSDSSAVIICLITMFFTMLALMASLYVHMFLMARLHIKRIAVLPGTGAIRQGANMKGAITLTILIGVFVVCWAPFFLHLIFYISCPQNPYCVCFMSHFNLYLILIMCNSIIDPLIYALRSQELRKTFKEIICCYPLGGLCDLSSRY
T4 sequence (P33032 whole entry): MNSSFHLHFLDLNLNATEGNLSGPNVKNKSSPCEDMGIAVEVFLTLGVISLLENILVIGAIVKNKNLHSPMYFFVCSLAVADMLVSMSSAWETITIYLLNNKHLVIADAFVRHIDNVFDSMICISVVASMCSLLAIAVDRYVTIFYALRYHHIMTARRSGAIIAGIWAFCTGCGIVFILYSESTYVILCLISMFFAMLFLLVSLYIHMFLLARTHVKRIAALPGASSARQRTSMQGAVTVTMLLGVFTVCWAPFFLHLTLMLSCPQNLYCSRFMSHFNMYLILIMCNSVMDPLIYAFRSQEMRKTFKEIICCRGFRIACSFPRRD

B1: metallopeptide 3-4 (peptide)
peptide: YV[Nle]GH[dF]RWCDRF-NH2
modifications: not fully specified (bridges); printed as Tyr-Val-Nle-Gly-His-D-Phe-Arg-Trp-Cys-Asp-Arg-Phe-NH2; also: oxorhenium(V) N3S1 chelate (backbone N of R7, W8, C9 and C9 S)
In the case of B1, the “% Inhibition at 1 µM” value in experiment [1] is 98%; in experiment [2] it was 94%; in experiment [3] it was 88%; in experiment [4], 100%.
In the same order, the values of YV[Nle]CGH[dF]RWDRF-NH2 (also: Re(V)=O N3S1 chelate via V2 N, Nle3 N, Cys4 N and S (ReOCl3(PPh3)2)) [metallopeptide 3-10] are 84%, 80%, 78% and 86%.

B2: metallopeptide 3-6 (peptide)
peptide: YV[Nle]GH[dF]CRWDRF-NH2
modifications: not fully specified (bridges); printed as Tyr-Val-Nle-Gly-His-D-Phe-Cys-Arg-Trp-Asp-Arg-Phe-NH2; also: bridge at 7 via Re(V)=O, other end not in the chain
In the case of B2, the “% Inhibition at 1 µM” value in experiment [1] is 52%; in experiment [2] it was 31%; in experiment [3] it was 20%; in experiment [4], 31%.

B3: metallopeptide 3-11 (peptide)
peptide: YVC[Nle]GH[dF]RWDRF-NH2
modifications: bridge (positions not given here); not fully specified (bridges); printed as Tyr-Val-Cys-Nle-Gly-His-D-Phe-Arg-Trp-Asp-Arg-Phe-NH2.; also: oxorhenium(V) N3S1 complex
For B3, the “% Inhibition at 1 µM” value in experiment [1] was determined as 95%; in experiment [2], 82%; in experiment [3] it was 85%; in experiment [4] it was 92%.

B4: metallopeptide 3-9 (peptide)
peptide: YV[Nle]GCH[dF]RWDRF-NH2
modifications: also: oxorhenium(V) N3S1 chelate: C5 SG + backbone N of X3, G4, C5, bridge at 5 via Re(V)=O, other end not in the chain
As for B4, the “% Inhibition at 1 µM” value is 77% in experiment [1], 55% in experiment [2], 69% in experiment [3] and 67% in experiment [4].

B5: metallopeptide 3-5 (peptide)
peptide: YV[Nle]GH[dF]RCWDRF-NH2
modifications: not fully specified (bridges); printed as Tyr-Val-Nle-Gly-His-D-Phe-Arg-Cys-Trp-Asp-Arg-Phe-NH2; also: bridge at 8 via Re(V)=O, other end not in the chain
For the molecule B5, the “% Inhibition at 1 µM” value in experiment [1] is 83%; in experiment [2] it was 33%; in experiment [3] it was 45%; in experiment [4] it was 81%.
